From patent US20240002495A1 (MITSUBISHI TANABE PHARMA, published 2024)
Where no end group is shown, it is not given here.

Key:
[1] = molecular target: T1, recombinant human IL-33 protein (residues 112 to 270) (ILC0701, ATGen Co. Ltd) (human, UniProt O95760 112-270); test: KinExA in PBS, neutral-purified IgG
T1 construct: bought protein
T1 sequence: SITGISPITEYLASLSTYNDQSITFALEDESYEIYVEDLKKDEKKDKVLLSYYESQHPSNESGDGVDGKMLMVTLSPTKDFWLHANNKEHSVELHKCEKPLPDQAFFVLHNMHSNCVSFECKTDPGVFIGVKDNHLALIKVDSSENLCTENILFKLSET
Experimental: Each test antibody (IgG) (“antibody (IgG)” indicates an antibody having a molecular form of IgG; hereinafter, the same representation is used) was analyzed to confirm the affinity with the human IL-33 protein by measuring dissociation constant (Kd) between each test antibody and the human IL-33 protein in PBS by kinetic exclusion assay (KinExA) (KinExA3200, available from Sapidyne Instruments, Inc.). Mixture samples of a test antibody and a human IL-33 protein (ILC0701, available from ATGen Co. Ltd) were prepared. The human IL-33 protein was titrated to a constant concentration of test antibody (final concentration: several tens of pM to several hundreds of pM) over a wide concentration range of the human IL-33 protein (so that it covered the concentrations of the human IL-33 protein resulting from 12-step serial doubling dilutions, i.e. one- to 2048-fold, with the upper limit of final concentration set to several nM to several tens of nM). The mixture samples were incubated at a room temperature until the antigen-antibody reaction reached equilibrium. After the reaction reached equilibrium, the percentage of free anti-IL-33 antibody in each sample was analyzed using KinExA3200. The values of Kd were calculated by fitting the plot of percentages of anti-IL-33 antibody not bound to the human IL-33 protein (vertical axis) and concentrations of antigen (horizontal axis) to a theoretical formula, using a KinExA data analysis program (KinExA Pro Software v3.5.3, available from Sapidyne Instruments, Inc.). Beads for capturing the anti-IL-33 antibody were prepared by suspending 50 mg of Azlactone beads (Sapidyne) in 1 mL of coating solution (10 μg/mL human IL-33 protein (ILC0701, available from ATGen Co. Ltd), 50 mM sodium carbonate at pH of 9.6) and incubating the solution at a room temperature for one hour. The antibody for detection used was anti-human F(ab)′2-DyLight649 (Jackson, 309-495-006).

[2] = molecular target: T1, recombinant human IL-33 protein …; test: KinExA in PBS, alkaline-purified IgG
Experimental: (§1) Mixture samples of a test antibody and a human IL-33 protein (ILC0701, available from ATGen Co. Ltd) were prepared. The human IL-33 protein was titrated to a constant concentration of test antibody (final concentration: several tens of pM to several hundreds of pM) over a wide concentration range of the human IL-33 protein (so that it covered the concentrations of the human IL-33 protein resulting from 12-step serial doubling dilutions, i.e. one- to 2048-fold, with the upper limit of final concentration set to several nM to several tens of nM). The mixture samples were incubated at a room temperature until the antigen-antibody reaction reached equilibrium. After the reaction reached equilibrium, the percentage of free anti-IL-33 antibody in each sample was analyzed using KinExA3200. The values of Kd were calculated by fitting the plot of percentages of anti-IL-33 antibody not bound to the human IL-33 protein (vertical axis) and concentrations of antigen (horizontal axis) to a theoretical formula, using a KinExA data analysis program (KinExA Pro Software v3.5.3, available from Sapidyne Instruments, Inc.). Beads for capturing the anti-IL-33 antibody were prepared by suspending 50 mg of Azlactone beads (Sapidyne) in 1 mL of coating solution (10 μg/mL human IL-33 protein (ILC0701, available from ATGen Co. Ltd), 50 mM sodium carbonate at pH of 9.6) and incubating the solution at a room temperature for one hour. The antibody for detection used was anti-human F(ab)′2-DyLight649 (Jackson, 309-495-006).

[3] = molecular target: T2, full-length human IL-33 protein (human, UniProt O95760 1-270); test: KinExA in PBS, alkaline-purified IgG
T2 construct: also called Human IL-33 (Full-Length)
T2 sequence: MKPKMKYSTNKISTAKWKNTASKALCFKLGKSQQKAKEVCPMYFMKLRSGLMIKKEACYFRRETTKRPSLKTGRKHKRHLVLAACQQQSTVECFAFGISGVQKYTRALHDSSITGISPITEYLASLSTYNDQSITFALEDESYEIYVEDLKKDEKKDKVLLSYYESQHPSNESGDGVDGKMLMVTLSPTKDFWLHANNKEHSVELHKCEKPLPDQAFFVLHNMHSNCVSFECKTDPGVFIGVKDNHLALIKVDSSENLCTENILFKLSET
Experimental: as §1

[4] = molecular target: T3, DQSITFALEDESYEIYVEDL (PEP14) (human, not fully specified); test: KinExA, alkaline-purified IgG, peptide
T3 peptide: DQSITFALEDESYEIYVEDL
Experimental: (§2) The mixture samples were incubated at a room temperature until the antigen-antibody reaction reached equilibrium. After the reaction reached equilibrium, the percentage of free anti-IL-33 antibody in each sample was analyzed using KinExA3200. The values of Kd were calculated by fitting the plot of percentages of anti-IL-33 antibody not bound to the human IL-33 protein (vertical axis) and concentrations of antigen (horizontal axis) to a theoretical formula, using a KinExA data analysis program (KinExA Pro Software v3.5.3, available from Sapidyne Instruments, Inc.). Beads for capturing the anti-IL-33 antibody were prepared by suspending 50 mg of Azlactone beads (Sapidyne) in 1 mL of coating solution (10 μg/mL human IL-33 protein (ILC0701, available from ATGen Co. Ltd), 50 mM sodium carbonate at pH of 9.6) and incubating the solution at a room temperature for one hour. The antibody for detection used was anti-human F(ab)′2-DyLight649 (Jackson, 309-495-006).
(§3) The anti-IL-33 monoclonal antibodies A10-1C04 and A25-3H04 bound to the epitope PEP14 as described in the Example 1. […] These peptides were synthesized, and the affinity with the alkali-purified antibodies was calculated as Kd by the KinExA experiment as in Example 9 (Table 14).

LEDESYEIYV = molecular target: T4, LEDESYEIYV (human, not fully specified (N-terminus)); test: KinExA, alkaline-purified IgG, peptide
T4 construct: synthetic peptide
T4 peptide: LEDESYEIYV
Experimental: as §2, §3

EDESYEIYV = molecular target: T5, EDESYEIYV (human, not fully specified (N-terminus)); test: KinExA, alkaline-purified IgG, peptide
T5 construct: synthetic peptide
T5 peptide: EDESYEIYV
Experimental: as §2, §3

Kd [1]: 0.166 nM | Kd [2]: 0.1 nM | Kd [3]: 0.18 nM | Kd [4]: 9 nM | Kd (LEDESYEIYV): 386 nM | Kd (EDESYEIYV): 2070 nM
B1: A10-1C04 (IgG) (antibody, V domains shown)
VH: EVQLLESGGGLVQPGGSLRLSCAASGFTFSDYYMNWVRQAPGKGLEWVSSISRYSSYIYYADSVKGRFTISRDNSKNTLYLQMNSLRAEDTAVYYCARDIGGMDVWGQGTLVTVSS
VL: QSVLTQPPSASGTPGQRVTISCTGSSSNIGAVYDVHWYQQLPGTAPKLLIYRNNQRPSGVPDRFSGSKSGTSASLAISGLRSEDEADYYCQTYDSSRWVFGGGTKLTVL
notes: tested as neutral-purified and as alkaline-purified antibody; also called V1; IGN1
